The data set can be described thus: protein stability index of a GFP-peptide fusion (GPS, HEK-293T) (PSI 1-6); higher = more stable.
The mark [1] stands for this setting: treatment: DMSO, c terminus: a fixed tail appended.
Setting [2] is: treatment: MLN4924 1 uM, 8 h, c terminus: a fixed tail appended.
Where [3] appears, read: treatment: DMSO, c terminus: native.
The mark [4] stands for this setting: treatment: MLN4924 1 uM, 8 h, c terminus: native.

± gives the standard deviation.
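Note: 24-mer peptide tiles fused after GFP, lentivirally expressed, FACS-sorted into six equal bins by GFP/DsRed ratio, decoded by Illumina sequencing, PSI is the read-weighted mean bin number.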

As for ELLREGRASATTTITTAAATSVTV [ZBTB22], the protein stability index worked out at 3.42 ± 0.21 under setting [1] and 3.48 ± 0.28 under setting [2].
For the sequence ELNDRFANFIEKVRFLEQQNAALR [PRPH], the protein stability index by setting is: under setting [1], 2.39 ± 0.21; under setting [2], 2.71 ± 0.33.
As to EMFPAAQQLYRHGKAYRFLFGFSA [JAGN1], the protein stability index reads like this: under setting [1], 2.5 ± 0.56; under setting [2], 2.31 ± 0.29.
As to EMLREVDLNGDGTVDFDEFVMMLS [CABP4], the protein stability index is, setting by setting: under setting [1], 4.06 ± 0.25; under setting [2], 4.17 ± 0.33.
For ENCLSASAAQTDPTTGYRRLLRFS [LOXL2], the protein stability index was found to be 3.34 ± 0.36 under setting [1] and 3.35 ± 0.4 under setting [2].
The sequence ENLIMFQNLANEEVRKLTQRLEEM [MATN2] displayed a protein stability index under setting [1] of 3.58 ± 0.094 and a protein stability index under setting [2] of 3.17 ± 0.47.
On to ENQEKTEDQYEENSHLTSVPHWIN [ETS2], for which the protein stability index reads like this: under setting [1], 4.97 ± 0.21; under setting [2], 4.95 ± 0.22.
For the sequence ENSVTHHEVKCQGKPLAGIYRKRE [KMT5A], the protein stability index reads like this: under setting [1], 4.34 ± 0.13; under setting [2], 4.42 ± 0.34.
ENYLEYRQVPGSDPACYEFLWGPR [MAGEA3]: the protein stability index came to 3.12 ± 0.34 under setting [1] and 3.17 ± 0.36 under setting [2].
Turning to EPDLRHLVLVVNTLRRIQASMAPA [SERTAD1], the protein stability index worked out at 2.66 ± 0.11 under setting [1] and 2.51 ± 0.14 under setting [2].
As to EPPPPGKHSNKKVMRTKSSEKAAN [CPXM2], the protein stability index is 5.09 ± 0.23 under setting [1] and 5.14 ± 0.81 under setting [2].
In the same order, the values of EQAPAPGEATAAPAPLCGGPSAEA [TBX6] are 5.5 ± 0.31 and 5.46 ± 0.25.
For the sequence EQDSGVQVEGLTVQYLGQAPELLG [ADAMTS4], the protein stability index is, setting by setting: under setting [1], 4.38 ± 0.13; under setting [2], 4.91 ± 0.34.
As to EQPHGRSRRREQSSSRNSHLVQHQ [ZNF8], the protein stability index was found to be 4.78 ± 0.23 under setting [1] and 4.76 ± 0.28 under setting [2].
Take EREASPSNSCQDSTDTESNNEEQR [IKZF1]: the protein stability index worked out at 5.24 ± 0.45 under setting [1] and 5.61 ± 0.22 under setting [2].
Consider ERENVAVAKLQESQPGNAVIDKET [SDE2], for which the protein stability index was determined as 5.37 ± 0.25 under setting [1] and 5.06 ± 0.21 under setting [2].
Consider ERKKNLTLALEALVQLRGRLTSQD [ALG2], for which the protein stability index by setting is: under setting [1], 2.79 ± 0.16; under setting [2], 2.88 ± 0.48.
On to ERMRNSRDRLLNRYRQAGSSGPGN [RPAIN], for which the protein stability index by setting is: under setting [1], 4.12 ± 0.25; under setting [2], 4.41 ± 0.27.
Regarding ERREALCRQLSESESSLEMDDERY [CCDC6], the protein stability index was determined as 5.41 ± 0.11 under setting [1] and 5.27 ± 0.16 under setting [2].
Turning to ERSVFSERTEESSAVQYFQFYGYL [CARM1], the protein stability index is, setting by setting: under setting [1], 2.08 ± 0.1; under setting [2], 2.23 ± 0.25.
Consider ERSVVTRDIRCSEDEKLCDPNTRP [ADAMTSL2], for which the protein stability index under setting [1] amounted to 5.06 ± 0.31 and the protein stability index under setting [2] came to 5.41 ± 0.27.
In turn, ERTRKPYNNDIDYYAKRNALRAAE [GALNT9] came in with a protein stability index under setting [1] of 4.1 ± 0.13 and a protein stability index under setting [2] of 4.26 ± 0.24.
In the same order, the values of ESAGPSRAVRQSVTSFPDADAFHH [EMD] are 4.33 ± 0.86 and 4.44 ± 0.18.
Turning to ESDYTYSSSYEQFNGELPNGRHKI [SRPK2], the protein stability index runs as follows: under setting [1], 4.04 ± 0.41; under setting [2], 3.97 ± 0.49.
For ESEDDPVVKKIALREIRMLKQLKH [CDKL4], in that order: 2.96 ± 0.52 and 3.08 ± 0.33.
As for ESIRRAQVSQVKGAARLALLQGAG [FCHSD1], the protein stability index is, setting by setting: under setting [1], 3.45 ± 0.12; under setting [2], 3.36 ± 0.52.
As for ESLVPFIVNDNITNNFFRFLCMT [DYNC2LI1], the protein stability index is, setting by setting: under setting [3], 3.91 ± 0.45; under setting [4], 2.63 ± 0.67.
As for ESYESMELACPAERSGHVAVSDGR [KLHDC2], the protein stability index is 5.08 ± 0.069 under setting [1] and 5.09 ± 0.17 under setting [2].
Take ETEEMLGKKQEYLENRIQREIALA [CHMP4C]: the protein stability index worked out at 4.44 ± 0.14 under setting [1] and 4.58 ± 0.29 under setting [2].
Take ETSVGTYESHSTSELEDLTEPEQR [TPD52L3]: the protein stability index stood at 5.69 ± 0.14 under setting [1] and 5.45 ± 0.28 under setting [2].
Take ETSVVAQFGIKDVFDNAIRAALIS [RHOBTB2]: the protein stability index amounted to 2.28 ± 0.19 under setting [1] and 2.38 ± 0.38 under setting [2].
Take EVDGLRGTNEALLRQLRELEEQFA [PRPH]: the protein stability index came to 4.35 ± 0.17 under setting [1] and 4.32 ± 0.26 under setting [2].
In turn, EVKPKDIIHVVKDQLIGQGIIVKD [TENT5D] showed a protein stability index under setting [1] of 3.52 ± 0.066 and a protein stability index under setting [2] of 3.73 ± 0.25.
Consider EVLKVQTHLENPTRYHLQQARRQQ [TFE3], for which the protein stability index came to 3.77 ± 0.23 under setting [1] and 3.91 ± 0.33 under setting [2].
Turning to EVNSRCYQPEPFACGIEHCSVHYV [FBXO34], the protein stability index runs as follows: under setting [1], 2.58 ± 0.18; under setting [2], 2.33 ± 0.67.
In the same order, the values of FCPLSLWRWQLYAAQSTKSPWNFL [CLPTM1] are 2.66 ± 0.62 and 2.9 ± 0.51.
For FELALQLAEMKDDSDSEKQQQIHH [VPS39], the protein stability index by setting is: under setting [1], 4.76 ± 0.17; under setting [2], 4.8 ± 0.12.
As to FEMKKGQCKDALEIYKRFLTRMTR [SNAP91], the protein stability index under setting [1] stood at 2.46 ± 0.7 and the protein stability index under setting [2] was 2.56 ± 0.43.
Regarding FESHDLLRKGFSCVKNELLPSHPL [POMP], the protein stability index stood at 2.92 ± 0.31 under setting [1] and 3.05 ± 0.42 under setting [2].
For FFEDGDVQRHLYLQDVIMQVADVP [ZNF511], in that order: 2.82 ± 0.29 and 2.81 ± 0.43.
In the same order, the values of FFVSSINTLVTKTMEDTLMTVKQY [ARFIP2] are 3.08 ± 0.64 and 3.05 ± 1.
Regarding FFVVETLCIIWFSFELLVRFFACP [KCNA3], the protein stability index is, setting by setting: under setting [1], 3.11 ± 0.52; under setting [2], 2.74 ± 0.42.
As for FGDLSLSLVTVGKHLTARVLCLIV [POMT2], the protein stability index is 3.39 ± 0.76 under setting [1] and 2.71 ± 0.48 under setting [2].
As for FGSFLLLLFSLTQFSVVSVVAYLA [RTN1], the protein stability index is, setting by setting: under setting [1], 3.14 ± 0.62; under setting [2], 3.35 ± 0.6.
With FIDTYSDVGRYIDHYAAIKKAWDD [FBXO3], the protein stability index runs as follows: under setting [1], 2.6 ± 0.61; under setting [2], 2.37 ± 0.77.
FIPAHVAFDKKVLKFDAYFQEDVP [EFHC1]: the protein stability index by setting is: under setting [1], 2.24 ± 0.23; under setting [2], 2.57 ± 0.58.
Consider FIPSLKYVQWSLPFIVFGATGLTS [SLC22A15], for which the protein stability index amounted to 3.14 ± 0.22 under setting [1] and 3.33 ± 0.36 under setting [2].
On to FKDKSTYIESSTKVYDDMAFRYLS [CLPTM1], for which the protein stability index is, setting by setting: under setting [1], 2.65 ± 0.33; under setting [2], 2.57 ± 0.32.
In the same order, the values of FKLLDKNSSGDIGKKEIKPFKRFL [SMOC2] are 2.54 ± 0.42 and 3.01 ± 0.43.
Turning to FLDLVKPEPVYKLTQRQVNITVQK [HACD3], the protein stability index is 2.56 ± 0.14 under setting [1] and 2.79 ± 0.44 under setting [2].
In the same order, the values of FLEEAHEWNQKRARKAMRNGISPI [N4BP2L1] are 3.1 ± 0.29 and 3.18 ± 0.34.
As for FLESTDSFNNELKRLCGLKVEVDM [SMARCE1], the protein stability index by setting is: under setting [1], 4.08 ± 0.23; under setting [2], 4.22 ± 0.21.
For FLSEEEYWKLQIFFTNVIQALGEH [CCNC], in that order: 2.42 ± 0.96 and 2.36 ± 0.084.
As to FLVLEQFLTILPEELQSWVRGHHP [ZNF232], the protein stability index was 2.45 ± 0.55 under setting [1] and 2.5 ± 0.62 under setting [2].
On to FMGTISDVKTNVQLLKGRVDNIST [CD207], for which the protein stability index by setting is: under setting [1], 3.02 ± 0.22; under setting [2], 3.12 ± 0.32.
In the same order, the values of FMHSFEEKYGRAHPVFYQGTYSQA [FAF2] are 2.18 ± 0.21 and 2.42 ± 0.28.
For FPAMLFSSMLTGILWDTLLRLCAW [POMT2], in that order: 3.23 ± 0.51 and 3.09 ± 0.12.
In the same order, the values of FPPFFDDNPFGIYQKILAGKIDFP [PRKX] are 2.28 ± 0.067 and 2.27 ± 0.62.
As to FQGSMRIFTKKLPHPDLPAEEKEQ [USP39], the protein stability index was found to be 2.55 ± 0.75 under setting [1] and 3.77 ± 0.69 under setting [2].
Take FRFIPVLFPNAKKEHVPTWLQNTH [TRAF3IP2]: the protein stability index reads like this: under setting [1], 2.3 ± 0.61; under setting [2], 2.6 ± 0.69.
With FRRSLHDPDGLVATYISEVHEHDG [APMAP], the protein stability index under setting [1] was determined as 4.02 ± 0.28 and the protein stability index under setting [2] was 4.01 ± 0.3.
Regarding FRRTDGRCLIWGRKPKVIECSYTS [DHCR7], the protein stability index runs as follows: under setting [1], 2.35 ± 0.17; under setting [2], 2.34 ± 0.33.
As for FSEETEKKFEHFSGLLNNQLSPQ [LOXL2], the protein stability index runs as follows: under setting [3], 3.57 ± 0.72; under setting [4], 4.61 ± 0.37.
Take FSLMVTFPDVPLGIFLFCVCVIAI [TMEM175]: the protein stability index under setting [1] amounted to 3.37 ± 0.5 and the protein stability index under setting [2] was found to be 3.14 ± 0.31.
Consider FSQEIGLASLGASEEAVQKLATCY [TPH1], for which the protein stability index by setting is: under setting [1], 3.12 ± 0.18; under setting [2], 3.34 ± 0.3.
FSSDKAKAGSSEWLAVDGLVSPSN [ATF4]: the protein stability index was determined as 3.8 ± 0.26 under setting [1] and 4.08 ± 0.32 under setting [2].
In the same order, the values of FTAALEHCRENAHDKIRPISSIGQ [SPACA9] are 3.3 ± 0.088 and 3.41 ± 0.25.
Turning to FTSPDYQQQCHEMAERLEDSVLKG [SDE2], the protein stability index under setting [1] worked out at 3.01 ± 0.59 and the protein stability index under setting [2] was 3.62 ± 0.7.
For the sequence FVCQCYSGYALAEDGKRCVAVDYC [MATN2], the protein stability index is, setting by setting: under setting [1], 2.29 ± 0.93; under setting [2], 2.77 ± 0.46.
As to FVEATRKWKVGIPSDPLVSIGALI [ALDH8A1], the protein stability index by setting is: under setting [1], 2.34 ± 1.1; under setting [2], 2.16 ± 0.57.
As to FWQTQYNNMNAVNLFFAWIKIFKY [PKD2L1], the protein stability index is 2.38 ± 0.38 under setting [1] and 2.19 ± 0.52 under setting [2].
On to GAFDSFLLRFGVPSPSTLEPHPRP [TNXB], for which the protein stability index was found to be 2.99 ± 0.42 under setting [1] and 2.97 ± 0.35 under setting [2].

The values are drawn from the supplement of paper PMC10567573.
